Four substances from CN101151278A can be followed below.

In one assay the target is 人FcRn (human) (UniProt P55899). Kind of assay: BIAcore, FcRn on CM5 chip, pH 6.0. Background: SPR reads the build-up and loss of mass on a sensor chip optically.
Another assay addresses 大鼠FcRn (rat) (UniProt P13599). Briefly: BIAcore, FcRn on CM5 chip.
In assay [1] the target is T1, CD20 on WIL2-S cells (human) (UniProt P11836).
T1 sequence (looked up): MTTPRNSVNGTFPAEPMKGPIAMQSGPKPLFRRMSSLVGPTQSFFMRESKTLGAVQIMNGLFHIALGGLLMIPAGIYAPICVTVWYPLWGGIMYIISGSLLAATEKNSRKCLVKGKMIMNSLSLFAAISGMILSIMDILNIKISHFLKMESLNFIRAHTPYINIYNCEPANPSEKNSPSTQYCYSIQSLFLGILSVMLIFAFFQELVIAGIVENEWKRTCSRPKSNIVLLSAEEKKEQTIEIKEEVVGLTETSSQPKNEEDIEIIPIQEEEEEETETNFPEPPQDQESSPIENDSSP
Kind of assay: cell-based or functional assay.

人FcRn (human), sequence (P55899 24-297 limits assumed, chain 1 of 2): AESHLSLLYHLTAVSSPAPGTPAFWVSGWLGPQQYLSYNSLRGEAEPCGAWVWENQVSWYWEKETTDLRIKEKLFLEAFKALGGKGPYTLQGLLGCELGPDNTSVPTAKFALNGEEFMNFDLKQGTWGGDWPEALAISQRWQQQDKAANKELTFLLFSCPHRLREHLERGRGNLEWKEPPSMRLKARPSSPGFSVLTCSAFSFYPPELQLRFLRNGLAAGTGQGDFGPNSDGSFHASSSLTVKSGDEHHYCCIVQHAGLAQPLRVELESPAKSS
人FcRn (human), sequence (P61769 21-119 limits assumed, chain 2 of 2, further chain): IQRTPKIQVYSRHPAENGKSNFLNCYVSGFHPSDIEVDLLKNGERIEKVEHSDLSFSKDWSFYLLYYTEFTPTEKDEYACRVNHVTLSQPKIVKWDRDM
大鼠FcRn (rat), sequence (P13599 23-298 limits assumed, chain 1 of 2): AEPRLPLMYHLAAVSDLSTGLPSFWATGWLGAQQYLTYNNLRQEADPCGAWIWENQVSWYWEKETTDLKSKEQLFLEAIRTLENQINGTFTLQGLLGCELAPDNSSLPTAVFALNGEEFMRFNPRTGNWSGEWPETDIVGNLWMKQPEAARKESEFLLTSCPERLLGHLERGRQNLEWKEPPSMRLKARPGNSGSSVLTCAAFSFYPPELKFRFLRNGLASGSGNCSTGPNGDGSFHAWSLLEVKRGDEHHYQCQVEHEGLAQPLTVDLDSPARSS
大鼠FcRn (rat), sequence (P07151 21-119 limits assumed, chain 2 of 2, further chain): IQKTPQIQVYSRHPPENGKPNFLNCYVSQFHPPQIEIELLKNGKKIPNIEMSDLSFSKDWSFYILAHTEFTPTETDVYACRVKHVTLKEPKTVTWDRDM

Consider “Fc变体 N434A+E380A+T307A (from UniProt P01857 114-330) (other; other documents disagree on this pair)”, for which the fold increase in affinity vs wild-type Fc with 人FcRn (human) was 14 fold. “Fc变体 N434F (from UniProt P01857 114-330) (other; other documents disagree on this pair)” displayed a fold increase in affinity vs wild-type Fc with 人FcRn (human) of 9 fold. Turning to “Fc变体 N434W (from UniProt P01857 114-330)”, the fold increase in binding vs wild-type Fc with 大鼠FcRn (rat) worked out at 10 fold. In assay [1], Rituxan (antibody) had an ADCC on WIL2-S cells with NK cells, EC50(变体)/EC50(2H7.v16) of 5.3; an ADCC on WIL2-S cells with NK cells, EC50(变体)/EC50(Rituxan) of 1; a CDC on WIL2-S cells, EC50(变体)/EC50(Rituxan) of 1.
